Measurements reported in the supplement of paper PMC12764529.
± gives the half width of the 95% confidence interval.

Experiments:
[1] = folding stability dG unfold from trypsin proteolysis; higher = more stable
Method in brief: (§1)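 Bayesian fitting of sequencing counts gave K50 for each design. Unfolding free energy followed by setting this against a sequence-predicted unfolded-state K50 and a shared folded-state K50, either per protease or with trypsin and chymotrypsin combined. The designs, under 80 residues and lacking cysteine, were digested in a PA-tagged cDNA display format at 11 threefold-diluted protease concentrations and without protease, and only those with AlphaFold2 dimer inter-PAE above 15 were kept.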

[2] = folding stability dG unfold from chymotrypsin proteolysis; higher = more stable
Method in brief: as §1

[3] = folding stability dG unfold (combined trypsin and chymotrypsin); higher = more stable
Method in brief: as §1

Sequence | folding stability dG unfold [1] [kcal/mol] | folding stability dG unfold [2] [kcal/mol] | folding stability dG unfold [3] [kcal/mol]
SAGGSAGGSAGVSFVVDALFVDPNTNEVYHGHIEFYDDGTAKITLTNQNGKTKTFTFPVLFSAGGSAGGSAG [r3_61_TrMRF] | 2.73 ± 0.14 | 3.25 ± 0.049 | 3.01 ± 0.19
SAGGSAGGSAGVVDEVKAALEPQGLKVLSVTPGSSSVTVTVLDPKKGETTTFTIPLDDPLSAGGSAGGSAGG [r11_428_JUSTAS] | 1.02 ± 0.029 | 1.28 ± 0.088 | 1.22 ± 0.057
SAGGSAGGSAGVVEPTVVSRAPDGTLTVVLNLPDGSTRTVTDPTNVTIGDRPINALTNASSAGGSAGGSAGG [r11_1017_JUSTAS] | -0.956 ± 0.45 | 0.508 ± 0.042 | 0.222 ± 0.14
SAGGSAGGSAGVVLTEDGYAVATVTVTTTTVEYDEETGEWKETTTTTTETLTVVVPVGATSAGGSAGGSAGG [r17_527_TrROS_Hall] | 2.66 ± 0.2 | 1.6 ± 0.14 | 2.22 ± 0.098
SAGGSAGGSAGVVRTDDGREVTVRRTVRVEVRLEITITASEEDREKAAAALERLLRELGLSAGGSAGGSAGG [r17_501_TrROS_Hall] | 2.68 ± 0.24 | 3.04 ± 0.086 | 2.86 ± 0.16
SAGGSAGGSAGWFFVMDIKYEYRQTPDGKTEQEMSIEMKPIPPIPAEDLKEKLGLPPEDIASAGGSAGGSAG [r3_338_TrROS] | 0.937 ± 0.067 | 2.62 ± 0.11 | 1.94 ± 0.17
SAGGSAGGSAGWFTIMFKADSPEKVEEIVDELAQENGLEVEIERNPGEPGYIMITIKPPPSAGGSAGGSAGG [r11_797_TrROS] | 1.47 ± 0.054 | 0.974 ± 0.21 | 1.27 ± 0.12
SAGGSAGGSAGWLMIMFPIPPNADNVRIKWPDGPTQEHEMEPGSPVMIMIPPGNIKIEVDSAGGSAGGSAGG [r11_52_TrROS] | 1.13 ± 0.054 | 1.24 ± 0.091 | 1.21 ± 0.1
SAGGSAGGSAGWRTHSHWVPPDNIPELAERIQDWGVKVEIERDPKDGWYRVTITIPDDFISAGGSAGGSAGG [r11_1043_TrROS] | 0.793 ± 0.058 | 1.38 ± 0.15 | 1.21 ± 0.14
SAGGSAGGSAGYKPGEVVYIEVEDPETGKSLKVPVKVPENMTPEQAKKLAEEAAKKYREGSAGGSAGGSAGG [r11_355_TrMRF] | 1.57 ± 0.082 | 2.22 ± 0.095 | 2.02 ± 0.16
SAGGSAGGSAGYVVIPLDIDAEPGATVEITLPNGEKIEAIVEDHPDGLRSVRVGDGVILVPGSAGGSAGGSA [r18_372_TrMRF] | 0.465 ± 0.032 | 0.827 ± 0.05 | 0.742 ± 0.087
SAGGSAGGSAHKITITLPNGNPPEIVVEFETEEEAKEKAEEIIKKLEEEGYPKENLTVTIEKESAGGSAGGS [r12_295_JUSTAS] | 1.87 ± 0.076 | 1.76 ± 0.087 | 1.86 ± 0.12
SAGGSAGGSAILVPSPETAKKIMDELRKKTGAKVKMKPIGTGADGKEYYRIEVVPPDKPLDSAGGSAGGSAG [r3_59_TrMRF] | 0.029 ± 0.084 | -0.118 ± 0.14 | 0.0705 ± 0.14
SAGGSAGGSAIMINIDLEYDPGDGTIELEYKISFMDPGGKPMGMITIRLEIRIPPPEPDPDDKSAGGSAGGS [r12_254_TrROS] | 3.08 ± 0.31 | 3.64 ± 0.39 | 3.37 ± 0.46
SAGGSAGGSAIVILLPWGFLIEIKNIRMEMKRDPGNGEPKMDMHIPIEIIPIPPPGDPAFQESAGGSAGGSA [r18_6_TrROS] | 2.12 ± 0.054 | 3.17 ± 0.039 | 2.79 ± 0.14
SAGGSAGGSAKAKIKKVEVEKEGDKLRVTAEIELEDGYVLKVSFEFKDDEIKMEIEIVPLKDSAGGSAGGSA [r18_79_TrROS_Hall] | 3.02 ± 0.32 | 3.38 ± 0.29 | 3.22 ± 0.48
SAGGSAGGSAKAKVIKTEEFELPNGVRIRIEYIEVDGKLIEKVEIEIKAESEEQKKALEKASAGGSAGGSAG [r3_158_TrROS_Hall] | 1.29 ± 0.052 | 1.82 ± 0.15 | 1.71 ± 0.17
SAGGSAGGSAKIRLIFKTEEEARKAIEALLPEGAKAKIKVEKRKDGKKYVVVEIEFKEEEESAGGSAGGSAG [r3_87_TrROS_Hall] | 3.58 ± 0.24 | 3.79 ± 0.23 | 3.57 ± 0.21

Sequence | folding stability dG unfold [1] [kcal/mol] | folding stability dG unfold [2] [kcal/mol] | folding stability dG unfold [3] [kcal/mol]
SAGGSAGGSAKIWIILKDADEARDRIEELFGPGVRIEPVNIQRWDGKVYVMIEIEIPPNMTSAGGSAGGSAG [r3_87_TrROS] | 2.1 ± 0.055 | 2.4 ± 0.051 | 2.28 ± 0.054
SAGGSAGGSAKKKILVKKPDGRLLLIEIDKDKPNTVRIYDIDTGKKIELSVEDLKKLKIKKSAGGSAGGSAG [r3_451_TrROS_Hall] | 1.57 ± 0.034 | 2.35 ± 0.052 | 2.08 ± 0.052
SAGGSAGGSAKKPVTGTIILKYPGTPEDALAKAKEIAKELESRGYSVSAEFLPNGYIKITLPSAGGSAGGSA [r18_262_TrMRF] | 1.48 ± 0.049 | 1.78 ± 0.051 | 1.73 ± 0.098
SAGGSAGGSAKKTLYKVKITKKNKNGEKIEIVVPKSEDEIKEEAKKKFGIDKIEIEPVELKSAGGSAGGSAG [r3_220_TrROS_Hall] | -0.305 ± 0.16 | 0.466 ± 0.19 | 0.182 ± 0.17
SAGGSAGGSAKKVIKAKILEVKVLPDGTGLVKLEGEDGLEVVIPLSILENISPDAIVTIEASAGGSAGGSAG [r3_315_TrMRF] | 0.916 ± 0.055 | 1.79 ± 0.039 | 1.45 ± 0.066
SAGGSAGGSAKKVKIEEKDGELTITVEPGEKVLIVYPDGTVEEVEVKEGDTITLPPGAKVLPSAGGSAGGSA [r18_452_TrROS_Hall] | 0.513 ± 0.11 | 1.63 ± 0.12 | 1.33 ± 0.24
SAGGSAGGSAKLEYDDDYVEIEFKVPDGPIMIYIPDWGWMIWIWPGKEVTIRFPIPKPPDNSAGGSAGGSAG [r3_185_TrROS] | 2.41 ± 0.089 | 4.03 ± 0.24 | 3.43 ± 0.22
SAGGSAGGSAKLVKITFSNGEELVLPADKFSIEAIKSLPVPAKVEVFDVPKSDTNLEDLLKSAGGSAGGSAG [r3_69_TrMRF] | 0.72 ± 0.043 | 2.03 ± 0.022 | 1.66 ± 0.044
SAGGSAGGSAKMEIVLEVDTPEEAKEAAKKLAEELKKKGYKVKVEVKKLKNGKYYVKITVDSAGGSAGGSAG [r3_211_TrROS_Hall] | 3.33 ± 0.23 | 4.84 ± 0.26 | 4.66 ± 0.33
SAGGSAGGSAKPKVKIEVEERRVLTLDPETGELKEERVLVVRIEVEPGMSEEEAKKLLEELASAGGSAGGSA [r18_438_TrROS_Hall] | 1.7 ± 0.079 | 2.66 ± 0.12 | 2.27 ± 0.16
SAGGSAGGSAKPLTVEEIIKKLNLPPNVEIVDVKVDYGKTENKPIIVLVLKTKDKPYLPVFASAGGSAGGSA [r18_354_TrMRF] | 1.25 ± 0.097 | 1.91 ± 0.065 | 1.61 ± 0.17
SAGGSAGGSAKPNWVIIEMTIQIPEGDPEEIKEIMEPFGWEITGVDNNYIKVSILMPPGAKISAGGSAGGSA [r18_168_TrROS] | 1.26 ± 0.14 | 1.14 ± 0.043 | 1.26 ± 0.25
SAGGSAGGSAKPQKVELELFPNGELIIRLPETGARIRLKVEVFKDASGNPFFKLEIVDIDPSAGGSAGGSAG [r3_76_TrMRF] | 2.48 ± 0.14 | 2.66 ± 0.058 | 2.6 ± 0.16
SAGGSAGGSAKPVLEVEITVEVNGKLYKVRARVELEETPDGLVLKVEVELENGEKFEFTLKLSAGGSAGGSA [r18_54_TrROS_Hall] | 4.42 ± 0.26 | 5.13 ± 0.21 | 5.11 ± 0.28
SAGGSAGGSAKPVYKIRIVVKKDGKEFVKEIEVPEDEEEAEALAKELAKKPEVEKVEVEKVSAGGSAGGSAG [r3_310_TrROS_Hall] | 0.739 ± 0.075 | 1.84 ± 0.058 | 1.62 ± 0.18
SAGGSAGGSAKVTYTENSVTIHAKVPEKPLKIEIPNTGKVVTIDLDKEVTVTFPVPKPPDESAGGSAGGSAG [r3_185_TrMRF] | -0.786 ± 0.07 | -0.454 ± 0.1 | -0.624 ± 0.17
SAGGSAGGSAKVYVNPDNNKVAVVLPPPGDSYLVLLFDPETGEVRLIEAPPEEVEELLKKGSAGGSAGGSAG [r3_162_TrMRF] | 0.618 ± 0.077 | 1.25 ± 0.097 | 0.845 ± 0.14
SAGGSAGGSAKWIYIMLPFPEGQKVEIEYPNGRKHSYEQTPDGMLMIRVRRPNAPIKIKIKSAGGSAGGSAG [r3_334_TrROS] | 1.9 ± 0.13 | 2.72 ± 0.23 | 2.4 ± 0.25
